# Source: the DeepSol protein solubility set
# Assay: soluble on expression in E. coli; label from the status in PepcDB or PDB records
row,Sequence,soluble on expression in E. coli
1,MKHLTASEVRSTFINFFREKKEHTYVHSSSVIPHDDPTLLFANAGMNQFKPLFLGIADPNSDLAKLKRAVNTQKCIRAGGKHNDLDDVGKDVYHHTYFEMLGNWSFGDYFKKEIITWAWELLTTVYGIPAERLYVSVFGGDEANGVPADSEARDIWRSVGVPDERILNFGMKDNFWEMGDVGPCGPCSEIHYDRIGNRDASHLVNADDPMVVEIWNLVFIQFNREEGGVLKPLPAKHIDCGLGLERLIAVMQDKTSNYDTDIFQPIFEAIHKGSGVRAYTGFIGDEDKDGVDMAYRVVADHVRTLTIALSDGGRPDNSGRGYVLRRILRRGVRYASEKLNAQPGFFASLVPVVISILGETFPELSRDPVTVMDIINDEEKQFLKTLSRGRVLFQRAVQSLPEGTMTFPGDVSWRLYDTYGFPADLTQLMAEEKGLSVDNTAFEEARRKAIETSSAGTGKFRDTLDLDVHALAELQQKGVPTTDDSPKYAYTFTGEGSDAVYKFEPCVGKILAIRRDGKFVDQLAAGEEGAILLDRTNFYAEQGGQIYDVGVLTKVNDESNEFNVSNCQVRGGYIVLVGSAEGSFSVGDQVNERFDEDRKQLIMKNHTGTHVLNYALRKVLADSDQKGSLVAPDRMRFDFTNKAGMTVQQVKKAEEYAQQLIDTKGQVYAKNSPLGEAKKVKGLRAMFDETYPDPVRVVAVGTPVEQLLQNPDAEEGQNTTVEFCGGTHLQNVSHIGRIVIASEEAIAKGIRRIVALTGPEAERAIARADRLTARLEEESKHADKKDELLANKDKFKALQKKIQEIVDEANGAQLPYWRKDSIREKAKAIQKTLDGYTKAQQAAVAEKVLGEAKELAAVAEQPTVLVHVFAANANSKAIDNALKLLKDTKAVMAFSVNEDSGKVLCLAKVDKSLVSNGLKANEWVNEVCTVLGGKGGGKDANAQLTGENVDKLDAAVELAQKFALAAIN,soluble
2,MKKFCLSYSSGKDCLLAMDRLVQAGNQPVALVTTLSDEINRSWFHGIPISVLEAAAEALDLPLVISHNNETNYTEKVVEALQETKKLGAETVCFGDIDIEQNGAWDRQVALSAGLEPQLPLWQENREALVKEFLAKGYTAIIKTVSKEAGIPIKFLGEPLNETFITYLKEHQLDICGENGEYHTLVIDGPLFKKRLNYYTSGIYESPYAYSLIIDA,not soluble
3,MKRLTAKEEEIMGFFWEKGPLFVKEILAFYDEPRPHFNTLSTIVRGLEEKGFLAHHTYGNTYQYYAVVSESDFSKRTLKSVISKYFNNSYLSAVSSLVKEEDISLDDLKKLIQEVEQKNEE,soluble
4,RPVWYGEPVDIQPEHRDMMLVVDLSGSMAEEDMKTSNGDFVDRLTAVKQVVSDFIDQRKGDRLGLVLFGDHAYLQTPLTFDRNTVREQLDRTVLNLVGQRTAIGEGLGLATKTFIESNAPQRTIILLSDGANTAGVLEPLEAAQLAKDNHAKIYTVGIGAGEMQVRGFFGKQTVNTARDLDEDTLTKIATMTGGQYFRARNADELAEIYQTIDALEP,soluble
5,SWMEEVIKLCGRELVRAQIAICGMSTWS,soluble
6,MVNRFREKLKPDQYLCRIEGTQFVLVSLENDVSNITQIADELRNVVSKPIMIDDNPFPLTLSIGISYDVGKNRDYLLSTAHNAMDYIRKNGGNGWQFFSPAMNEMVKERLVLGAALKEAISNNQLKLVYQPQIFAETGELYGIEALARWHDPQHGHVPPSRFIPLAEEIGEIENIGRWVIAEACRQLAEWRSQNIHIPALSVNLSALHFRSNQLPNQVSDAMQAWGIDGHQLTVEITESMMMEHDTEIFKRIQILRDMGVGLSVDDFGTGFSGLSRLVSLPVTEIKIDKSFVDRCLTEKRILALLEAITSIGQSLNLTVVAEGVETKEQFEMLRKIHCRVIQGYFFSRPLPAEEIPGWMSSVLPLKI,not soluble
7,MSLEKQMNCNLKELKEFIDNEMLLILGQMDKPSLIFDHLYLGSEWNASNLEELQGSGVDYILNVTREIDNFFPGLFAYHNIRVYDEETTDLLAHWNEAYHFINKAKRNHSKCLVHCKMGVSRSASTVIAYAMKEFGWPLEKAYNYVKQKRSITRPNAGFMRQLSEYEGILDASKQRHNKLWRQQTDSEGHHHHHH,not soluble
8,YHPVFSAKIEQRLIERFGVRRALIALDQPNDEAQRQQVAGLVSNYLTSTLKNGMVVTVGQGRNVSAVAHHVGVITPRDCKFVCSIGGIHPRGGMFNADHICRQLAKKYGGSSETLYAPAYAENPEQKRVFMQNSTVKQTLDLARKADIALVGIGDMSENSYMVDLGWFTPEEVVQSRLNQGVVGDFAGHDFFDVHGRIANTVMNDRVIGLGIDEFRPIAEVIAIAAENSKPLALLGALRTGAIDVIATSVSNALTVLNLDEQMQTALSAS,not soluble
9,MCTVSLCVSLCLWMHNETVQVAMALEFKDKWLEQFYEDDKRHRLIPSSIENALFRKLEILDAAQAESDLRIPPGNRFEHLEGNLKGWCSIRVNKQYRLIFQWVDGVALNTYLDPHKY,not soluble
10,MSLNLKKAELHVHLEGTISPELAKKLAKRNQLTLPNGLIAPDEKSYLSRDFLDFLKVYDTLASVIKNPQDYYDITFDYLKSNAQEHAIYIEMMYSPDHAEQSSGIPSKEHLAAIQQAIDDAKSQFDIVGRIIITAVRHFGVEACERVAKQASIDKFPCVTGFGLGGDEAKFPPQLFTKAYQIAADSGLECTVHAGEFDSAKGMEEAMKTLPIKRIGHGVRVIDSPDIMAMVKDQGIALEVCPTSNIFLGLFKDMNSHPFPKLYEAGIKVSINSDDPPFMSTTLAQEYKRVQKAYGYNNDTMNNITRMAIEAAFVDEKTRKELLTKLEQEGHHHHHH,soluble
11,MKLPVMSPEHSAQLQAFEAKILSNHAKIEAWFRTQWSVHRPPFYGSVDIRNAGYKISSIDMNLFPGGFNNLNPNFIPLAAVAAQDAVQRACETAKSVLIIPENHTRNTFYLQNVYALGEILRSAGYEVRLGSLNPEVTEPTEFETALGDKILLEPLLRTRDRVHLADGFSPCVVLLNNDLSAGIPDILKGISQTVLPPLHGGWTTRRKTNHFGAYNQVTAEFAKLIGIDEWQINPYFEKIGGLDFQGREGEDALAEAVERVLAKIQAKYDESGITDKPFVIVKADAGTYGMGVMSVKSADEVRGLNRKNRNKMAKVKEGLEVSEVIVQEGIYTYETLNGAVCEPVVYMMDRFVIGGFFRVHEGRGADENLNAGGMVFVPLSNSIPTGNGDNSQEAPEACKRVFEQWDSLGMPRSEKDCDVDNEHNRLYVYGVMARLSLLAASIELEETA,soluble
12,MSLRLEDIQAFLNVVELGSISAAAERMSLSKSVISKRVSDLERHLGVRLLYRSTRNVEPTEAGGFFYKSAKASLQDLNNAAESVALRENDLCGELRVMAPMSFGTLWLGPLVMEFMARNPRLEVVLQLDDRIVDFEKEGYDLAIRITRLQDSSLIARQLGTSRRVVCCSPEYLERHGPLQRIEDILCHPCIGYSHNTPSQLWSFEPRVAGEPARMITPRGRFNTNNGQTMRDAAVRGLGLAMLPLFIAAEDLAAGRLVEALPQERPLDDLIYAMYSRAATLSPKVKLFVQFLQQALGSPPWGVR,not soluble
13,MGSDKIHHHHHHMQHTIQHLYKTHGDDGLLYAWFLSMHTRVDIILCCQKSENELMLVVNSIYDTLRQLERIANYYDPSSELSQVNQRASTAPVMISQSLYRMISLCTEYHKKTLGCFDVTIHSDNYNQDTIHSIHLYPEAQSVFFQQAGTTINLSGFLKGYALDKIREILKVHIIANALINMGNSSVLALGNHPVGTGWKVSFDDQASTTKNHKTQSILLNNECLTTSGNNSDDRKHIISPSSGKPLEGVRQVTVVTDDGTTGEILSTSLFVANQKQRELIMSEFLPKRVIDLELCQMV,not soluble
14,MSLARTEKIYIYGASGHGLVCEDVAKNMGYKECIFLDDFKGMKFESTLPKYDFFIAIGNNEIRKKIYQKISENGFKIVNLIHKSALISPSAIVEENAGILIMPYVVINAKAKIEKGVILNTSSVIEHECVIGEFSHVSVGAKCAGNVKIGKNCFLGINSCVLPNLSLADDSILGGGATLVKNQDEKGVFVGVPAKRMEGGSHHHHHH,soluble
15,MGSDKIHHHHHHMLEVIDVWKKYPPKTQALREVSFEAEEGSITAVFGENGSGKTTLLKVIASFLIPDRGKVLIDSVNIVEKPSFAVEKVSISTGYERSFYYRLSVEENLKFFGMLNDLLGKTLKRETERVMKELGLLECRKKRYMELSTGYKKRVDVARALMKKASIYIFDEPCSGVDLRTRLKIHEIMKRLKESGRIVIFASHDLEDLKIADRVIVLKKGEKVLEFSPKKEDLAAVLRGILEIQAFPGD,not soluble
